Among the data in US20070178531A1 (BIOCHECK, published 2007) are A450 values, retold here.

For assay [1], the target named is T1, glutathione S-transferase (GST) (UniProt P08515 1-218 = GST).
T1 construct: also called carrier protein GST
The assay can be described thus: ELISA, Ab 0.010 µg/ml.

For assay [2], the target named is T2, Human Id1: Histidine (human, UniProt P41134 1-155, limits assumed).
T2 construct: Fusion protein made in E. coli from vector pGW07; also called h-Id1: his; not shown: His tag
T2 sequence (looked up): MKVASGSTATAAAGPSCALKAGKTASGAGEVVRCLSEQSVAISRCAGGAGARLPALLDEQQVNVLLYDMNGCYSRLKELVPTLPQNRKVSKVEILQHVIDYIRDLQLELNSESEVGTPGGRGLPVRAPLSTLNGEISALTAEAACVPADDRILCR
In words: ELISA, Ab 0.100 µg/ml. As to the method:
(§1) The rabbit monoclonal anti-human Id3 (clone #3-3) and the rabbit monoclonal anti-mouse/human Id3 (clones #6-1, 16-1, 17-3, and 42-1) produced in Example 6 were tested reactivity against the following antigens: mouse Id1:His, human Id1:His, mouse Id2:His, human Id2:His, mouse Id3:His, human Id3:His, mouse Id4:His, human Id4:His and GST.
(§2) 1. Microtiter wells (prepared in accordance with Example 6) were coated (0.1 μg/well) with mouse Id1:His, human Id1:His, human Id2:His, human Id3:His, and 1.0 μg/well with GST. [0155] 2. Antibody Diluent: 0.25% (w/v) BSA in 0.015M KPO₄ Buffer, 0.85% (w/v) NaCl, 0.1% (w/v) NaN₃, pH=7.40 [0156] 3. Rabbit monoclonal anti-human Id3 (clone #3-3) prepared in Example 7 was diluted to […] with the antibody diluent. […] 4. Rabbit monoclonal anti-mouse/human Id3 (clones #6-1, 16-1, 17-3, 42-1) prepared in Example 7 was diluted to 0.005, 0.010, 0.025, 0.05, 0.10, 0.25, and 0.50 μg/ml with the antibody diluent. […] 5. Conjugate Diluent: 50% (v/v) which consists of an aqueous solution containing Fetal Bovine Serum in 0.05 M Tris, 1% (v/v) Proclin-300, pH 7.6. [0159] 6. Conjugate: Goat anti-rabbit IgG (H+L)-HRP conjugate. [0160] 7. TMB reagent. […] 8. Stop solution (1 N HCI). Method
(§3) 1. Dispense 100 μL of antibody diluent, diluted rabbit monoclonal human Id3, and mouse/human Id3 hybridoma supernatants into appropriate wells. […] 2. Incubate at room temperature with mechanical shaking at 750 rpm for 90 minutes. [0165] 3. Remove the incubation mixture by flicking plate content into an appropriate waste container followed by rinsing the wells 5 times with distilled water. [0166] 4. Strike the wells sharply onto absorbent paper or paper towels to remove all residual water droplets. [0167] 5. Dispense 100 μL of 1:50,000 Goat Anti-Rabbit IgG-HRP Conjugate Reagent into each well. Gently mix for 5 seconds. [0168] 6. Incubate at room temperature with mechanical shaking at 750 rpm for 90 minutes. [0169] 7. Repeat procedures 3 and 4. [0170] 8. Dispense 100 μL of TMB Reagent into each well. Gently mix for 5 seconds. [0171] 9. Incubate at room temperature with mechanical shaking at 750 rpm for 20 minutes. […] 10.
For orientation: In an ELISA, binding on a coated surface is turned into a signal by an enzyme label.

Assay [3] addresses T3, Mouse Id1: Histidine (mouse, UniProt P20067-2 1-148, limits assumed).
T3 construct: Fusion protein made in E. coli from vector pGW07; also called m-Id1-His; not shown: His tag
T3 sequence (looked up): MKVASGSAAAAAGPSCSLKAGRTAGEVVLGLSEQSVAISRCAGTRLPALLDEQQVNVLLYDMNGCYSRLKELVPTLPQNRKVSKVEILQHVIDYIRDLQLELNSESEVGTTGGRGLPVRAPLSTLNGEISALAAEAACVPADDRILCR
The assay can be described thus: ELISA, Ab 0.100 µg/ml. How it is done:
as §1, §2, §3

Assay [4] addresses T2, Human Id1: Histidine. The assay can be described thus: ELISA, Ab 0.025 µg/ml. As to the method: as §1, §2, §3
Another assay concerns the target T4, Human Id2: Histidine (human, UniProt Q02363 1-134, limits assumed).
T4 construct: Fusion protein made in E. coli from vector pGW07; also called h-Id2: His; not shown: His tag
T4 sequence (looked up): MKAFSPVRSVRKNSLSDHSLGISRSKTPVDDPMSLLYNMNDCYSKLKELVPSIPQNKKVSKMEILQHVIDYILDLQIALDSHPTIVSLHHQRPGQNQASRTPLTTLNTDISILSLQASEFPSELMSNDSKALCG
In words: ELISA, Ab 0.025 µg/ml. How it is done:
as §1, §2, §3

Assay [5] deals with T3, Mouse Id1: Histidine. In words: ELISA, Ab 0.025 µg/ml. As to the method:
as §1, §2, §3

A further assay concerns the target T5, Mouse Id2: Histidine (mouse, UniProt P41136 1-134, limits assumed).
T5 construct: Fusion protein made in E. coli from vector pGW07; also called m-Id2: His; not shown: His tag
T5 sequence (looked up): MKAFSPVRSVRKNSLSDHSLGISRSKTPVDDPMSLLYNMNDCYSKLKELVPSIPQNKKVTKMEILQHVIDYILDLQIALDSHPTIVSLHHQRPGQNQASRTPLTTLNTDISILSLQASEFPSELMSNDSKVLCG
In words: ELISA, Ab 0.025 µg/ml. How it is done:
as §1, §2, §3

The next assay has as its target T6, Mouse Id3: Histidine (mouse, UniProt P41133 1-119).
T6 construct: Fusion protein made in E. coli from vector pGW07; also called m-Id3: His; Mouse Id3 (coated wells); not shown: His tag
T6 sequence: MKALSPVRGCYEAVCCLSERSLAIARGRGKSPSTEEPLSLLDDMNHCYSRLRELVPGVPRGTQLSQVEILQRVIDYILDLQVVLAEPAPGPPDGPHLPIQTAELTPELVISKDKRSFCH
In words: ELISA, Ab 0.025 µg/ml. How it is done: as §1, §2, §3

For the next assay, the target named is T7, Human Id3: Histidine (human, UniProt Q02535 1-119 at identity 1.00)).
T7 construct: Fusion protein made in E. coli from vector pGW07; also called h-Id3: His; Human Id3 (coated wells); not shown: His tag
T7 chain: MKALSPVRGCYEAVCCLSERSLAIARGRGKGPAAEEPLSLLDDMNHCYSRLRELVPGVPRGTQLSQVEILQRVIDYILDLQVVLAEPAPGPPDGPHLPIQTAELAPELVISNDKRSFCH
The assay can be described thus: ELISA, Ab 0.025 µg/ml. As to the method: as §1, §2, §3

T1 sequence (P08515 whole entry): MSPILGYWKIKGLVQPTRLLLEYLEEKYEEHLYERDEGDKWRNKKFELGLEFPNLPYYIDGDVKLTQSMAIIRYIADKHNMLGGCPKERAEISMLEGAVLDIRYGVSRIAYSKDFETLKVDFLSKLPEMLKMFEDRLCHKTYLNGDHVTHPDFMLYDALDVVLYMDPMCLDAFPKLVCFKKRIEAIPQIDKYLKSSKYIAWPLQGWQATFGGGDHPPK

B1: rabbit monoclonal anti-human Id3, clone #BCH-4/#3-3 (antibody, V domains shown)
VH: QSVEESGGRLVTPGTPLTLTCTVSGIDLSSYAMSWVRQAPGKGLEWIGVIFPSNNVYYASWAKGRFTISKTSTTVDLKITSPTTEDTATYFCASMGAFDSWGPGTLVTVSS
VL: QVLTQTPSPVSAAVGGTVTINCQASQSIYNDNDLAWFQQKPGQPPKLLIYDASTLTSGVPSRFKGSGSGTQFTLTISDLDCDDAATYYCAARYSGNIYGFGGGTEVVVK
notes: Rabbit IgG from a rabbit hybridoma; also called h Id3 MoAb 3-3
Take B1: the A450 was 0.045 A450 in [1]; 0.047 A450 with Human Id1: Histidine [2]; 0.047 A450 in the assay with Mouse Id1: Histidine [3]; 0.049 A450 with Human Id1: Histidine [4]; 0.044 A450 in the assay with Human Id2: Histidine; 0.044 A450 with Mouse Id1: Histidine [5]. Also, the A450 in the assay with Mouse Id2: Histidine is 0.048 A450.

B2: rabbit monoclonal anti-mouse/human Id3, clone #BCH-4/#16-1 (antibody, V domains shown)
VH: QSVEESGGRLVTPGTPLTLTCTASGFSLSSYYIHWVRQAPGKALEWIGYISDGGTTYYASWAKGRFTISKTSSTTVDLKMTSLTTEDTATYFCARQGFNIWGPGTLVTVSL
VL: AVLTQTPSPVSAAVGGTVTISCQSSQSVYNNNWLSWFQQKSGQPPKLLIYETSKLESGVPSRFKGSGSGTQFTLTIIDVQCDDAATYYCLGGYWTTSDNNIFGGGTEVVVK
notes: Rabbit IgG from a rabbit hybridoma; also called m/h Id3 MoAb 16-1
For the molecule B2, the A450 in assay [1] came out at 0.046 A450; with Human Id1: Histidine [2] it was 0.047 A450; with Mouse Id1: Histidine [3], 0.047 A450; in the assay with Human Id1: Histidine [4], 0.046 A450; with Human Id2: Histidine, 0.045 A450; in the assay with Mouse Id1: Histidine [5] it was 0.044 A450. Also, the values for the A450 with Mouse Id3: Histidine, with Mouse Id2: Histidine and in the assay with Human Id3: Histidine were 0.953 A450, 0.051 A450 and 0.802 A450, respectively.

B3: rabbit monoclonal anti-mouse/human Id3, clone #BCH-4/#6-1 (antibody, V domains shown)
VH: QSVEESGGRLVTPGTPLTLTCTASGFSLSNVYIHWVRQAPGKGLEWIGYISDGDTARYATWAKGRFTISKTSSTTVNLKMTSLTTEDTATYFCARQGFNIWGPGTLVTVSL
VL: AVLTQTPSPVSAAVGGTVSISCQSSQSVWNNNWLSWFQQKPGQPPKLLIYETSKLESGVPSRFKGSGSGTQFTLTISDVQCDDAATYYCLGGYWTTSDNNVFGGGTEVVVK
notes: Rabbit IgG from a rabbit hybridoma; also called m/h Id3 MoAb 6-1
Regarding B3, the A450 in assay [1] is 0.046 A450; in the assay with Human Id1: Histidine [2], 0.049 A450; with Mouse Id1: Histidine [3] it was 0.049 A450; with Human Id1: Histidine [4] it was 0.048 A450; with Human Id2: Histidine, 0.045 A450; with Mouse Id1: Histidine [5], 0.046 A450. Further, the A450 with Mouse Id3: Histidine is 1.13 A450; with Mouse Id2: Histidine it was 0.048 A450; with Human Id3: Histidine it was 0.974 A450.

B4: rabbit monoclonal anti-mouse/human Id3, clone #BCH-4/#17-3 (antibody, V domains shown)
VH: QSVEESGGRLVTPGTPLTLTCTASGFSLSNVYIHWVRQAPGKGLEWIGYISDGDTARYATWAKGRFTISKTSSTTVNLKMTSLTTEDTATYFCARQGFNIWGPGTLVTVSL
VL: AVLTQTPSPVSAAVGGTVSISCQSSQSVWNNNWLSWFQQKPGQPPKLLIYETSKLESGVPSRFKGSGSGTQFTLTISDVQCDDAATYYCLGGYWTTSDNNVFGGGTEVVVK
notes: Rabbit IgG from a rabbit hybridoma; also called m/h Id3 MoAb 17-3; BCH-3/#17-3
As for B4, the A450 in assay [1] turned out to be 0.046 A450; with Human Id1: Histidine [2], 0.048 A450; with Mouse Id1: Histidine [3], 0.051 A450; in the assay with Human Id1: Histidine [4], 0.047 A450; with Human Id2: Histidine it was 0.054 A450; in the assay with Mouse Id1: Histidine [5], 0.045 A450. Also, the results for the A450 with Mouse Id3: Histidine, in the assay with Mouse Id2: Histidine and with Human Id3: Histidine were 1.4 A450, 0.05 A450 and 1.27 A450, respectively.

B5: rabbit monoclonal anti-mouse/human Id3, clone #BCH-4/#42-1 (antibody, V domains shown)
VH: QSVEESGGRLVTPGTPLTLTCTASGFSLSSYYIHWVRQAPGKALEWIGYISDGGTTYYASWAKGRFTISKTSSTTVDLKMTSLTTEDTATYFCARQGFNIWGPGTLVTVSL
VL: AVLTQTPSPVSAAVGGTVTISCQSSQSVYNNNWLSWFQQKSGQPPKLLIYETSKLESGVPSRFKGSGSGTQFTLTIIDVQCDDAATYYCLGGYWSTSDNNIFGGGTEVVVK
notes: Rabbit IgG from a rabbit hybridoma; also called m/h Id3 MoAb 42-1
B5: the A450 amounted to 0.045 A450 in assay [1]; 0.047 A450 with Human Id1: Histidine [2]; 0.049 A450 with Mouse Id1: Histidine [3]; 0.043 A450 with Human Id1: Histidine [4]; 0.071 A450 with Human Id2: Histidine; 0.045 A450 with Mouse Id1: Histidine [5]. Besides, the A450 in the assay with Mouse Id3: Histidine is 1.58 A450; with Mouse Id2: Histidine, 0.052 A450; with Human Id3: Histidine, 1.44 A450.
